Measurements reported in patent US11306331B2, “Processes for the production of hydroxycinnamic acids using polypeptides having tyrosine ammonia lyase activity” (CysBio ApS, priority 2014, dated 2022).

T1: Herpetosiphon aurantiacus HaXAL1 tyrosine ammonia lyase (Protein GI 159898407), SEQ ID NO: 2, His-tagged (N-terminal tag SEQ ID NO: 11) (Herpetosiphon aurantiacus, UniProt A9AUJ9)
T1 sequence (A9AUJ9 1-552): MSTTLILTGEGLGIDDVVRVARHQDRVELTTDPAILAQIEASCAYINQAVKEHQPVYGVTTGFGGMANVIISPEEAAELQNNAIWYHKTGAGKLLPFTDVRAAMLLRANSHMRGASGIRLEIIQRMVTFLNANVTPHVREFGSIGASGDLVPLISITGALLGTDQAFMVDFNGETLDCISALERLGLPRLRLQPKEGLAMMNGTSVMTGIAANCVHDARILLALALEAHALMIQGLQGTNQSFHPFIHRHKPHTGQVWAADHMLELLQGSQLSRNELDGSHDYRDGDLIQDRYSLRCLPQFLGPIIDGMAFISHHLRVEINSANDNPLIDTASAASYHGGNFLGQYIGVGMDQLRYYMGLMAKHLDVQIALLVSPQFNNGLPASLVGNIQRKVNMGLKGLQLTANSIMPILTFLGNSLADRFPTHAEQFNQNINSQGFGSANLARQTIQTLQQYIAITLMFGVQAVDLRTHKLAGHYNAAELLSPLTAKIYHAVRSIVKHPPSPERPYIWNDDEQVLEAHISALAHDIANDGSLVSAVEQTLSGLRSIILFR


Columns and labels:
[1] = molecular target: T1, Herpetosiphon aurantiacus HaXAL1 tyrosine ammonia lyase (Protein GI 159898407), SEQ ID NO: 2, His-tagged (N-terminal tag SEQ ID NO: 11); assay: In vitro kinetics of purified His-tagged HaXAL1 (tyrosine/phenylalanine ammonia lyase activity, absorbance at 315/295 nm); type: biochemical
Procedure: The tyrosine ammonia lyase activity may for instance be determined in accordance to the following method: Enzymatic assays are performed in 200 μL volumes in wells in a UV transparent 96-well plate, by following the increase in absorbance at 315 nm (pHCA) using spectrophotometry or HPLC with UV detection. The reaction mixtures contain 2 μg of purified protein and are initiated by adding 1 mM tyrosine or 6 mM after equilibration to 30° C. The enzymatic activity is calculated as U/g, where U is defined as μmol substrate converted per minute. Negative controls contain no purified protein. Kinetic constants Km and vmax are determined from assays containing 1.56 μM to 200 μM tyrosine. See also Kyndt et al. (2002).
Four of the enzymes were further purified by His-tag purification as follows. A DNA linker (5′ phosphorylated oligonucleotides CBJP559 and CBJP560, Table 5) was inserted in place of the sequence between the NdeI and BgIII site in plasmid pCDFDuet-1. This would result in the addition of the amino acids MAHHHHHHENLYFQ (SEQ ID NO: 11) to the N-terminal end of the polypeptides. […]
Enzymatic assays were performed in 200 μL volumes in wells in a UV transparent 96-well plate, by following the increase in absorbance at 315 nm (pHCA) or 295 nm (CA). […] The enzymatic activity was calculated as U/g, where U is defined as μmol substrate converted per minute.

[2] = test system: Saccharomyces cerevisiae CEN.PK102-5B; assay: Specific production of pHCA and CA by S. cerevisiae expressing TAL enzymes; type: cell-based; conditions: 72 h, 30° C., +/- standard deviation
Text: A number of the previously characterized enzymes were characterized when expressed in Saccharomyces cerevisiae. Genes encoding HaXAL1 and FjXAL were synthesized with codon optimization for S. cerevisiae available by GeneArt (Life Technologies), and were named HaXAL1 Sc and FjXALSc. Genes were amplified using the oligonucleotide (refer to specific name) shown in Table 6, and inserted by uracil-excision into the vector pCfB132 together with the PPGK1 promoter amplified by primers PPGK1_fw and PPGK1_rv (Jensen et al., 2014). The finished plasmids were transformed into Saccharomyces cerevisiae CEN.PK102-5B (MAT a ura3-52 his3Δ1 leu2-3/112 MAL2-8c SUC2) using a standard lithium acetate transformation protocol and selected for on synthetic drop-out media plates lacking uracil.
Cells were grown in SC medium without uracil, and diluted into Delft medium or Feed-In-Time (FIT) medium (m2p-labs) supplemented with leucine and histidine. After 72 h of incubation at 30° C. with shaking, samples were taken for the analysis of optical density at 600 nm and for clarification of the supernatant, which was analyzed by HPLC as described in example 1. The specific production was calculated as micromolar (μM) concentration per unit of optical density of the culture at 600 nm and is shown in Table 4.

Row | Molecule | Kcat ([1]; 30° C, 1.56 μM to 200 μM tyrosine or 193 μM to 25 mM phenylalanine) | TAL/PAL ([1]; ratio of Kcat/Km for Tyr over Phe) | Specific production of CA ([2]; Delft + Tyr (10 mM)) | Specific production of pHCA ([2]; Delft + Tyr (10 mM)) | Specific production of CA ([2]; Delft medium) | Specific production of pHCA ([2]; Delft medium) | Specific production of CA ([2]; FIT + Tyr (10 mM)) | Specific production of pHCA ([2]; FIT + Tyr (10 mM)) | Specific production of CA ([2]; FIT medium) | Specific production of pHCA ([2]; FIT medium)
1 | N[C@@H](Cc1ccc(O)cc1)C(=O)O [Tyr, tyrosine] | 0.0517 s⁻¹ | 540 |  |  |  |  |  |  |  | 
2 | Flavobacterium johnsoniae FjXAL tyrosine ammonia lyase (Protein GI 146298870), SEQ ID NO: 1, His-tagged (N-terminal tag SEQ ID NO: 11) (Flavobacterium … (protein) MNTINEYLSLEEFEAIIFGNQKVTISDVVVNRVNESFNFLKEFSGNKVIYGVNTGFGPMAQYRIKESDQIQLQYNLIRSHSSGTGKPLSPVCAKAAILARLNTLSLGNSGVHPSVINLMSELINKDITPLIFEHGGVGASGDLVQLSHLALVLIGEGEVFYKGERRPTPEVFEIEGLKPIQVEIREGLALINGTSVMTGIGVVNVYHAKKLLDWSLKSSCAINELVQAYDDHFSAELNQTKRHKGQQEIALKMRQNLSDSTLIRKREDHLYSGENTEEIFKEKVQEYYSLRCVPQILGPVLETINNVASILEDEFNSANDNPIIDVKNQHVYHGGNFHGDYISLEMDKLKIVITKLTMLAERQLNYLLNSKINELLPPFVNLGTLGFNFGMQGVQFTATSTTAESQMLSNPMYVHSIPNNNDNQDIVSMGTNSAVITSKVIENAFEVLAIEMITIVQAIDYLGQKDKISSVSKKWYDEIRNIIPTFKEDQVMYPFVQKVKDHLINN |  |  | 0 ± 0 μM OD600-1 | 120 ± 16 μM OD600-1 | 0 ± 0 μM OD600-1 | 30 ± 3.5 μM OD600-1 | 0 ± 0 μM OD600-1 | 120 ± 19 μM OD600-1 | 0 ± 0 μM OD600-1 | 130 ± 16 μM OD600-1
